Sequences and labels used below:
B1: Ferritin and Dps (Cthe_0016) (natural protein, UniProt A3DBC9 1-159, looked up)
chain: MSKLYDNLNEQMNFELESAYIYATMSAYLDSLNMKGMTHFFDEQVKEEMEHAGKIKKFLQDTGYGIKYRPLNPGDGKFDSIEDVFKKALAHEKTVTSRINDLVKQAREEGDQRVLNLLAWFVDEQIEEENMFGVLVERLERINGHWNGLYILDKELGER
notes: ferritin (annotated Ferritin and Dps), Clostridium thermocellum ATCC 27405, locus Cthe_0016, 18.6 kDa; also called spots 6 and 7; source: endogenous, C. thermocellum membrane fraction solubilised with 1.0% DDM; copies: 24
B2: ABC transporter related protein (Cthe_3148) (natural protein, UniProt A3DK64 1-632, looked up)
chain: MENNVKKNKKSIVLRLFKDILEFYPVMLPVAIVCILFNATISSIPAVFMQNVIAIVENNWRTGDWNAVGGRILSLVAVLVAFYTLSILSGIAYNQMMAIITQGTLKKFRCKMFARMQTLPIKYVDTHNHGDIMSVYTNDIDTLRQMISQSFPQLLLSGITVLTVFSIMVYFCLWLTIIVLIGVIAMFFVTRRVGGGSAKYFIRQQKALGRVEGFIEEMMNGQKVIKVFCREEEVKKDFDKLNEALFDDARKANRYANILAPILNNIGNVLYVFVAITGGVLLVTNAPNVSLSGLSMGISIVVPFLNMTKQFVGNINQVSQQINAVIMGLAGAQRIYELIDEEPEQDDGYVTLVNVREENGQLIECEERTGIWAWKHPHSSDGSVTYTKLMGDVRLFNVDFEYEPGKSVLHDISLYAKPGQKVAFVGATGAGKTTITNLLNRFYDIADGKIRYDGININKIKKSDLRRAVGIVLQDTNLFTGTVMDNIRYGKLDATDEECIAAAKLAGADDFIRRLPDGYYTMLTENGANLSQGQRQLISIARVAVADPPVMILDEATSSIDTRTEAIVQRGMDALMEGRTVFVIAHRLSTVKNANVIIVLDHGRIIERGTHEELIAQKGQYYQLYTGAFELE
notes: ABC transporter related protein with fused ABC and IM domains, Clostridium thermocellum ATCC 27405, locus Cthe_3148, 70 kDa; also called ABC transporter with fused ABC and IM domains; Class 1 ABC transporter; source: endogenous, C. thermocellum membrane fraction solubilised with 1.0% DDM
B3: Polynucleotide phosphorylase/polyadenylase (Cthe_0418) (enzyme, UniProt A3DCH7 1-700, looked up)
chain: MYKTFSMELAGRTLTIETGKLAQLANGSVLVRYGDTVVLSTATASATPREGVDFFPLSVDYEERLYAVGKIPGGFIKREGKPSEKAILTARVIDRPLRPLFPKDLRNDVAIVNTVLSVDQDNSPELAALLGSSIAVSISDIPFNGPVGAVILGLIDGEVIINPTEKQKEISQMYVTLAGTRNKIVMIEAGANEVPDEVMLDAIKKGHEEIKKIVDFIDGIVKEVGKPKFEYESAEVPEEIFNAVREYAYDKMREAVLAVDKQVRDKNIDDLTKEITEHFAEVFPEMEPAIKEAIYKLEKKVVREYILEEGRRVDGRRLDEIRPLSAEVGLLPRVHGSGLFTRGQTQVLSSVTLGAMGDVQILDGIDTEETKRYMHHYNFPGFSVGEAKSSRGPGRREIGHGALAERALEPVIPSEEEFPYTIRVVSEVLMSNGSTSQGSVCGSTLALMDAGVPIKKPVAGISAGLVVDENNPDRFVTFMDIQGIEDFFGDMDFKVAGTKDGITAIQVDIKIDGLTEEIIKQAFELTRKGRLYIIDNVLLKAIPEPRKQMSKYAPKIISTTINPDKIREVIGPGGKMINKIIDETGVKIDINDDGRVYIFSSDIQAGKRARSMIEAIAKDIEPGQVFLGRVIRVTSFGAFVEFLPGKEGLVHISKLDKKRVERVEDIVRVGDQILVKVIEIDKQGRVNLSRKDAMEDEWDK
notes: polynucleotide phosphorylase/polyadenylase, Clostridium thermocellum ATCC 27405, locus Cthe_0418, 77 kDa; also called Polyribonucleotide phosphorylase; PNPase; source: endogenous, C. thermocellum membrane fraction solubilised with 1.0% DDM
B4: Carboxyl transferase (Cthe_0699) (enzyme, UniProt A3DDA5 1-516, looked up)
chain: MDKVDKIGLLREKLAQVEQGGGAEKIAKQHDAGKMTARERIQALFDENSFVEIDTFVETRSIDFDMQKKKVPGDGVVTGYGSIDGRLVFVAAQDFTVIGGSLGEMHAAKITKVMDMAMKMGAPFISINDSGGARIEEGIDALKGFGDIFYRNTLASGVIPQISVIMGPCAGGAVYSPAITDFIFMVDKTSQMFITGPQVIKSVTGEDVTFEKLGGAETHNSISGVAHFRSSSEKECIEQIKKLISYLPDNNLSDVPIVPTQDDINRITDNLVDIIPQDSNKPYDMMEIITSVVDNGDFFEIQKDFAKNIIIGFGRMNGGTVGIVANQPKVAAGVLDVNSSDKAARFVRFCDAFNIPIITFTDVPGYLPGVGQEHSGVIRHGAKLLYAFSEATVPKINVIVRKAYGGAYIAMNSKHLGADMVFAWPSAEIAVMGPEGAANIIFKKDIAAADDPMETRKRLIEEYREKFSNPYVAASRGYVDDVIDPATTRIRLISALEMLASKRENRPAKKHGNIPL
notes: carboxyl transferase with two carboxyl transferase domains, Clostridium thermocellum ATCC 27405, locus Cthe_0699, 56 kDa; also called spots 4 and 15; source: endogenous, C. thermocellum membrane fraction solubilised with 1.0% DDM
B5: Ornithine carbamoyltransferase (Cthe_1869) (enzyme, UniProt A3DGL1 1-307, looked up)
chain: MEHLISLHDLTVEDFESIFKLAEKLKRQQKEGIPHHLLKGKTLGMIFTKSSTRTRVSFEVGMYQLGGYPLFLSANDIQLGRGETIYDTAQVLSRYVDGIMIRTFAQSDVEDLARYGNVPVINGLTDLMHPCQILADLFTIYEHKGTLKGLKLAYVGDGNNVANSLLHGCAKVGMDIAVASPKGYECDSRIVEEAKEDAKASGANILLTEDPEEAIKDADVVYTDTWVSMGQESEKEERIKVFMPYQVNNTLFSKAHEDAIFLHCLPAYRGYEVTEDVIDGSQSVIFDEAENRLHVQKAIMALLMGNK
notes: ornithine carbamoyltransferase, Clostridium thermocellum ATCC 27405, locus Cthe_1869, 34 kDa; also called OTCase; spot 27; source: endogenous, C. thermocellum membrane fraction solubilised with 1.0% DDM

Data on five proteins can be found in article PMC3039559, “A Blue Native-PAGE analysis of membrane protein complexes in Clostridium thermocellum” (BMC Microbiology, 2011).

The data set deals with the molecule itself. As to the kind of experiment: native gel or EMSA; two-dimensional blue native PAGE (4-15% gel) then SDS-PAGE of the membrane fraction solubilised at 4°C in 1.0% (w/v) DDM; about 40 μg protein; spots identified by MALDI-TOF/TOF; complex mass estimated from BN-PAGE markers.
As for B1, the “stoichiometry N” value is 24. For B2 the value was 2; for B3, 2; for B4, 4. For B5 the value was 3.

Usually stoichiometry N stands for a count of units in the complex or per binding partner.
